According to patent publication US20050013803A1 (published 2005):

Assays:
Test in all cases: co-immunoprecipitation with anti-Taz antibody from infected BMK cells, Western blot
[1] = target: T1, polyoma virus large T antigen, wild-type (strain PTA), full length (murine polyoma virus, strain PTA)
T1 construct: mature; also called normal large T antigen; WT large T antigen

[2] = target: T2, polyoma virus small T antigen, wild-type (murine polyoma virus)
T2 construct: also called sT

[3] = target: T3, polyoma virus middle T antigen, wild-type (murine polyoma virus)
T3 construct: also called mT
T3 sequence (P0DOJ8 whole entry): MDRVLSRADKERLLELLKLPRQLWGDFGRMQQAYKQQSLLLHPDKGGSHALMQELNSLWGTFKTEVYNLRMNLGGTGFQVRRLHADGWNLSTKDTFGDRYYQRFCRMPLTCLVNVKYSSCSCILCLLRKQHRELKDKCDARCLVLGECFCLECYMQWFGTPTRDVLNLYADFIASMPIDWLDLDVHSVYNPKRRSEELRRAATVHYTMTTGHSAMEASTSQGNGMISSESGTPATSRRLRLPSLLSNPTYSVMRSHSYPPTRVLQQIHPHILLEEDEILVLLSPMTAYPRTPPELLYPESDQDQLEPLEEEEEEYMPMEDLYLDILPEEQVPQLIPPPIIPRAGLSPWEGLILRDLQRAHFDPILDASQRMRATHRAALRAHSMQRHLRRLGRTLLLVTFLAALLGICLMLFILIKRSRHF

T2 sequence (P68834 whole entry): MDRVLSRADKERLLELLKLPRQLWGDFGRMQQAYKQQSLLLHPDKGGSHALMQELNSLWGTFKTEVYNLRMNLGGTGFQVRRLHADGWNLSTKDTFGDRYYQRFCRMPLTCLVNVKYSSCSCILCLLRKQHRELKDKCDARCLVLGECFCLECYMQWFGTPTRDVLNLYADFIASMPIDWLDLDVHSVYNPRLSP
T1 sequence (P0DOJ5 whole entry): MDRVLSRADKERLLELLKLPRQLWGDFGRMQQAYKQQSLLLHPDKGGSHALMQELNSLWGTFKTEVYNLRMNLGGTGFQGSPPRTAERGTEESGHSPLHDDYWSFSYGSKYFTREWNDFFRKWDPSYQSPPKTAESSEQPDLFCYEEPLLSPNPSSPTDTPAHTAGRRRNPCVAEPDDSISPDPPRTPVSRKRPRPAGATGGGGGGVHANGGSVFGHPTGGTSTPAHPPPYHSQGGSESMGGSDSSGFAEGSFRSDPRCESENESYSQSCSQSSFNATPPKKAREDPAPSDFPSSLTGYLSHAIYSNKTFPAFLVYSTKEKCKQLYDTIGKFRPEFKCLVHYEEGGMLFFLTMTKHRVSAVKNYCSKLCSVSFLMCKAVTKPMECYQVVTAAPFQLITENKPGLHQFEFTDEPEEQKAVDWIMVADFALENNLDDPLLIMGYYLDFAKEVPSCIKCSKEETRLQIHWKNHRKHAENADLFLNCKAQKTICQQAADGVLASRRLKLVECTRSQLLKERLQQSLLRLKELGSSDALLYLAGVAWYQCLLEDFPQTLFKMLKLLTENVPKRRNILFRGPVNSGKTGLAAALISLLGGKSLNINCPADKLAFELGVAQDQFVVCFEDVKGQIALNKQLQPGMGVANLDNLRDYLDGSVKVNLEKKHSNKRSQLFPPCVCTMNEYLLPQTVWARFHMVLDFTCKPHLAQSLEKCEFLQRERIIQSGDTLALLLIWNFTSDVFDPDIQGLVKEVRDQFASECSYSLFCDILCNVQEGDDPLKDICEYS

B1: murine Taz (transcriptional co-activator with PDZ binding motif) (other, mouse, UniProt Q9EPK5 1-395, looked up)
chain: MNPSSVPHPLPPPGQQVIHVTQDLDTDLEALFNSVMNPKPSSWRKKILPESFFKEPDSGSHSRQSSTDSSGGHPGPRLAGGAQHVRSHSSPASLQLGTGAGAAGGPAQQHAHLRQQSYDVTDELPLPPGWEMTFTATGQRYFLNHIEKITTWQDPRKVMNQPLNHVNLHPSITSTSVPQRSMAVSQPNLAMNHQHQQVVATSLSPQNHPTQNQPTGLMSVPNALTTQQQQQQKLRLQRIQMERERIRMRQEELMRQEAALCRQLPMETETMAPVNTPAMSTDMRSVTNSSSDPFLNGGPYHSREQSTDSGLGLGCYSVPTTPEDFLSNMDEMDTGENSGQTPMTVNPQQTRFPDFLDCLPGTNVDLGTLESEDLIPLFNDVESALNKSEPFLTWL
notes: Endogenous protein immunoprecipitated from mouse cell extracts, or a library clone in yeast; also called mTaz
relative binding efficiency [1]: 1 ratio large T: middle T: small T | relative binding efficiency [2]: 100 ratio large T: middle T: small T | relative binding efficiency [3]: 7 ratio large T: middle T: small T
